Numbering of substitutions follows the chain as printed. Blank lines part the entries; values can stand above or below the binder they belong to.
Columns and labels:
[1] = target: T1, hu-M-IL1RAP construct, positions S21-T367 (extracellular domain of the membrane form of human IL1RAP) (human, UniProt Q9NPH3 21-367); assay: ELISA, hybridoma supernatant
T1 construct: Biotinylated when captured on the Biacore chip
T1 sequence: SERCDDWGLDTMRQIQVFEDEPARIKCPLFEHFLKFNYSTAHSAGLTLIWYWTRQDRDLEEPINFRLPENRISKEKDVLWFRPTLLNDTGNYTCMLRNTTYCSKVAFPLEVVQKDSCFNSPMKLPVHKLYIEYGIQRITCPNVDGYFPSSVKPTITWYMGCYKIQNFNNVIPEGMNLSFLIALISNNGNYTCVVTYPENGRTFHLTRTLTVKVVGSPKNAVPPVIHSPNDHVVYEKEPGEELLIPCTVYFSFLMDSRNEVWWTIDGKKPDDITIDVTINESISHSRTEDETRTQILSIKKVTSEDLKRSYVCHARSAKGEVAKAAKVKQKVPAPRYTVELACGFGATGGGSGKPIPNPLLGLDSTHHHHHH
Protocol: (§1) After removing the coating solution, unspecific binding was blocked by adding 200 μL of assay/blocking solution containing 1% bovine serum albumin (BSA) in phosphate buffered saline (PBS) pH 7.4 (ELISA diluent) and incubation at room temperature for one hour with agitation or overnight at 4° C. without agitation. Plates were then washed three times with 300 μL of PBS, 0.05% TWEEN®-20 (wash buffer). 100 μL of culture supernatant from individual hybridoma clones (or purified antibodies at the indicated concentration) was added to individual wells followed by incubation at room temperature for one hour with agitation. […] The plate was incubated at room temperature for one hour with agitation, washed six times with wash buffer and developed for 3-10 minutes by adding 50 μL/well of tetramethylbenzidine (TMB) microwell peroxidase substrate (Scytek Laboratories, Inc., Logan, UT, USA; catalogue number TM1999).

[2] = target: T2, cyno-M-IL1RAP construct, positions S21-T367 (cynomolgus monkey, UniProt P59822 21-367 (rhesus entry)); assay: BLI (OCTET), mAb on AMC sensor, 25 C
T2 construct: Biotinylated when captured on the Biacore chip; also called cy-M-IL1RAP
T2 sequence: T1 sequence with L183F, T273P, K326T
Protocol: (§2) The BLI experimental format immobilizes the antibody on a biolayer surface with the IL1RAP antigen in solution. […] All samples were placed in black 96-well plates and the experiment was performed at 25° C. […] The biosensors were equilibrated in experimental buffer at 25° C. for ten minutes prior to starting the experiment.
(§3) The kinetics experiment was performed with the following steps, where the step name, solution and time are listed: Baseline (buffer—60 seconds), Loading (antibody—200 seconds), Baseline 2 (buffer—minimum 120 seconds), Association (analyte—200-300 seconds) and Dissociation (buffer—1000 seconds). The BLI signal resulting from analyte association and dissociation of the antigens from the immobilized antibody was analyzed using the OCTET® Data Analysis software (Pall ForteBio). First, a reference subtraction was performed on all recorded traces using the reference well (biosensor that underwent the same steps as experimental wells but no analyte for the Association step), then all the traces were aligned to the beginning of the Association step.

[3] = target: T1, hu-M-IL1RAP construct, positions …; assay: BLI (OCTET), mAb on AMC sensor, 25 C
Protocol: as §2, §3

[4] = target: T3, human IL1RAP (hu-IL1RAP) on human cells (human, UniProt Q9NPH3 21-570); assay: cell-based or functional assay
T3 sequence: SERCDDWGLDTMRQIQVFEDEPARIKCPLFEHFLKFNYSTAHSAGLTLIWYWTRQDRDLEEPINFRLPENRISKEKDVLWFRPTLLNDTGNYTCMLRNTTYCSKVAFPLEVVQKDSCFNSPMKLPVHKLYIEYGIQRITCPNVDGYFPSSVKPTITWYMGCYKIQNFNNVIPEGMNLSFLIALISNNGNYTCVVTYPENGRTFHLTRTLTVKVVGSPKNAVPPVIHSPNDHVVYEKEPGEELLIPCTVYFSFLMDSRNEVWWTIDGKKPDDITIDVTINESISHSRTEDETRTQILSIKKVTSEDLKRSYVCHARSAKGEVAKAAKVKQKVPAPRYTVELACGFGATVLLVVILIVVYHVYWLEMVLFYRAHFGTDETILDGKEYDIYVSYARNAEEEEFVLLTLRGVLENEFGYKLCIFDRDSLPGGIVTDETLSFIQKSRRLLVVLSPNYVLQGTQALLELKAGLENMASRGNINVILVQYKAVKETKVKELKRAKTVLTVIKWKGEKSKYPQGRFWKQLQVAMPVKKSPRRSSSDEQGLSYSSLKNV

[5] = target: T3, human IL1RAP (hu-IL1RAP) on human cells; assay: cell-based or functional assay; remark: listed apart in the source
[6] = target: T4, hu-S-IL1RAP construct, positions S21-Q356 (soluble human IL1RAP) (human, UniProt Q9NPH3 21-350); assay: ELISA, purified mAb
T4 sequence: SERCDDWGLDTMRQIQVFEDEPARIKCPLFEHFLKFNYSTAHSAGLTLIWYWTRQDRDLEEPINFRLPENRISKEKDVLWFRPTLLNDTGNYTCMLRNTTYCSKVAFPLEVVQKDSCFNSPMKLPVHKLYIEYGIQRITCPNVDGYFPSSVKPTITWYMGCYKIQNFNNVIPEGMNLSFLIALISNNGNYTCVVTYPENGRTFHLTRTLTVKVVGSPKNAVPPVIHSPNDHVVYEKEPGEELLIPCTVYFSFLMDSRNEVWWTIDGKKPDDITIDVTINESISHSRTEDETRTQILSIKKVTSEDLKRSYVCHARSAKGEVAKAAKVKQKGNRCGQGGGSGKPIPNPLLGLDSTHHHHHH
Protocol: as §1

[7] = target: T2, cyno-M-IL1RAP construct, positions …; assay: ELISA, purified mAb
Protocol: as §1

[8] = target: T1, hu-M-IL1RAP construct, positions …; assay: ELISA, purified mAb
Protocol: as §1

[9] = target: T5, mu-M-IL1RAP construct, positions S21-T367 (mouse, UniProt Q61730 21-367); assay: ELISA, purified mAb
T5 construct: also called mo-M-IL1RAP; mouse-M-IL1RAP
T5 sequence: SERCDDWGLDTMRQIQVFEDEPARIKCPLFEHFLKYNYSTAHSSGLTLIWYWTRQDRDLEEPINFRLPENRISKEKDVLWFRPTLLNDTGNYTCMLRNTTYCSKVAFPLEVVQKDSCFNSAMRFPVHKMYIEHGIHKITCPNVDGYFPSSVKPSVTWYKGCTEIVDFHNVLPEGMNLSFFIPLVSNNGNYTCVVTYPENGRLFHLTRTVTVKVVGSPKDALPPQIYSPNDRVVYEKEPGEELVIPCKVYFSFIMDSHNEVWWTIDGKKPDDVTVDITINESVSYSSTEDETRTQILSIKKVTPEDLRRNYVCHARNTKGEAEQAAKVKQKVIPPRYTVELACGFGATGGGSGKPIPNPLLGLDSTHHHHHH
Protocol: as §1

[10] = target: T3, human IL1RAP (hu-IL1RAP) on human cells; assay: cell-based or functional assay; remark: listed apart in the source
[11] = target: T6, hu-M-IL1RAP-D3 construct, positions K238-T367 (human); assay: ELISA, mAb at 10 nM
T6 chain: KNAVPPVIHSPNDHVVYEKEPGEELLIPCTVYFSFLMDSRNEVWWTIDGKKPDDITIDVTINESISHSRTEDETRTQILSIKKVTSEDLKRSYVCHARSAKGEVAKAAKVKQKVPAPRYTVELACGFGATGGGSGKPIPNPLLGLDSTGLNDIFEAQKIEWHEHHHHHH
Protocol: as §1
(§4) Binding domain mapping: Binding domain mapping of the 15 purified antibodies was carried out using the above-described ELISA assay with the following IL1RAP polypeptide constructs coated at 1 μg/ml on the assay plates: hu-M-IL1RAP, hu-M-IL1RAP-D1, hu-M-IL1RAP-D1D2, and hu-M-IL1RAP-D3.

[12] = target: T1, hu-M-IL1RAP construct, positions …; assay: ELISA, mAb at 10 nM
Protocol: as §1, §4

A450 [1]: 1.44 A450 | Kd [2]: 0.142 nM | koff [2]: 5.74e-05 s⁻¹ | kon [2]: 413000 M⁻¹ s⁻¹ | Kd [3]: 0.219 nM | koff [3]: 0.000103 s⁻¹ | kon [3]: 469000 M⁻¹ s⁻¹ | HEK-Blue, IL-1α, IC50 [4]: 4.7 nM | HEK-Blue, IL-1β, IC50 [4]: 1 nM | HEK-Blue, IL-33, IC50 [4]: 3.71 nM | HEK-Blue, IL-36α, IC50 [4]: 2.52 nM | HEK-Blue, IL-36β, IC50 [4]: 0.981 nM | HEK-Blue, IL-36γ, IC50 [4]: 0.665 nM | HEK-Blue, IL-1β, % inhibition at 100 nM [5]: 99% | HEK-Blue, IL-33, % inhibition at 100 nM [5]: 93% | EC50 [6]: 0.029 nM | EC50 [7]: 0.024 nM | EC50 [8]: 0.026 nM | HEK-Blue SEAP, IL-1β, % inhibition (supernatant) [10]: 84% | HEK-Blue SEAP, IL-33, % inhibition (supernatant) [10]: 65% | A450 [11]: 1.44 A450 | A450 [12]: 1.23 A450
B1: 11C5(Hy) (purified mAb from the 11C5 hybridoma) (antibody, V domains shown)
VH: EVQLVESGGGLVKPGGSLKLSCAASGFTFSNYAMSWVRQTPEKRLEWVATVTEGGDYNYCLDDVKGRFTISRDNANDNLYLQMSHLKSEDSARYYCARDRWPYFFDYWGQGTTLTVSS
VL: DIQMTQSPASLSVSVGETVTITCRASENIYSNLAWYQQKQGRSPQLLVYGAKNLADGVPSRFSGSGSGTQYSLNINSLQSEDFGTYYCQHFWTTPRTFGGGTKLEIK
notes: Mouse hybridoma mAb; also called 11C5(Hy) mAb; mAb 11C5(Hy)
binding result [9]: no binding (tested: 20 nM (highest tested))

A450 [1]: 1.01 A450 | HEK-Blue, IL-1β, % inhibition at 100 nM [5]: 89% | HEK-Blue, IL-33, % inhibition at 100 nM [5]: 69% | EC50 [6]: 0.035 nM | EC50 [7]: 0.032 nM | EC50 [8]: 0.039 nM | HEK-Blue SEAP, IL-1β, % inhibition (supernatant) [10]: 48% | HEK-Blue SEAP, IL-33, % inhibition (supernatant) [10]: 33% | A450 [11]: 1.46 A450 | A450 [12]: 1.12 A450
B2: 13D8 (purified mAb from hybridoma 13D8) (antibody, V domains shown)
VH: EVQLVESGGGLVKPGGSLKLSCTASGFTFSNYAMSWVRQTPEKRLEWVATISDGGNYTYYPDNVKGRFTISRDIAKNNLYLQMSHLKSEDTAMYYCARDRWPYFFDFWGQGTTLTVSS
VL: B1 VL with E27D, Q38E, R42K, K52T, N74K, T85S, T97S, I106L
notes: Mouse hybridoma mAb
binding result [9]: no binding (tested: 20 nM (highest tested))

A450 [1]: 0.99 A450 | HEK-Blue, IL-1β, % inhibition at 100 nM [5]: 72% | HEK-Blue, IL-33, % inhibition at 100 nM [5]: 56% | EC50 [6]: 0.035 nM | EC50 [7]: 0.032 nM | EC50 [8]: 0.039 nM | HEK-Blue SEAP, IL-1β, % inhibition (supernatant) [10]: 53% | HEK-Blue SEAP, IL-33, % inhibition (supernatant) [10]: 51% | A450 [11]: 1.4 A450 | A450 [12]: 1.18 A450
B3: 10A11 (purified mAb from hybridoma 10A11) (antibody, V domains shown)
VH: EVQLQQSGAELVKPGASVRLSCTSSGFNIKDYFMHWVKQRTEQGLEWVGRIDPEDGETQYAPNFQDKATITVDTSSNTVYLQLSSLTSEDTAVYYCFRPLYYGNSPWFAYWGQGTLVTVSP
VL: DIQMTQTTSSLSASLGDRVTISCRASQDISNYLNWYQQKPDGTVKLLIYYTSTLHSGVPSRFSGSGSGTDYSLTISNLEPEDIATYYCHQYSKFPPTFGSGTKLEIK
notes: Mouse hybridoma mAb
binding result [9]: no binding (tested: 20 nM (highest tested))

— patent publication US20260015426A1 (23ANDME, published 2026)
